According to US20100016697:

Columns and labels:
[1] = system: LTBP-1 fluorogenic peptide SCJJ-1
[2] = system: MT1-MMP specific fluorogenic substrate MCA-Pro-Leu-Ala-Cys(p-OmeBz)-Trp-Ala-Arg(Dpa)-NH2

MMP-2 catalytic domain (part of the MMP-2/-9 catalytic domain cocktail), sequence (chain, as listed by the source): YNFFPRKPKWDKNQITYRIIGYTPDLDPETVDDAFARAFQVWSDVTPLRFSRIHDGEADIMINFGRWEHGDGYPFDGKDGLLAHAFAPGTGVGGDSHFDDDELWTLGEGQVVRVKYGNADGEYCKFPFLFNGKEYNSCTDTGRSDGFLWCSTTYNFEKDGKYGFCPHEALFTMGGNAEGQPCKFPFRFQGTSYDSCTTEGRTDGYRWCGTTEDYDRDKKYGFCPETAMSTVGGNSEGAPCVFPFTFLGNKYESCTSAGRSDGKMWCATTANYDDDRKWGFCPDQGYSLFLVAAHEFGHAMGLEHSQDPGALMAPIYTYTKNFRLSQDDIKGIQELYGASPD
MMP-8 (Calbiochem), sequence (chain, as listed by the source): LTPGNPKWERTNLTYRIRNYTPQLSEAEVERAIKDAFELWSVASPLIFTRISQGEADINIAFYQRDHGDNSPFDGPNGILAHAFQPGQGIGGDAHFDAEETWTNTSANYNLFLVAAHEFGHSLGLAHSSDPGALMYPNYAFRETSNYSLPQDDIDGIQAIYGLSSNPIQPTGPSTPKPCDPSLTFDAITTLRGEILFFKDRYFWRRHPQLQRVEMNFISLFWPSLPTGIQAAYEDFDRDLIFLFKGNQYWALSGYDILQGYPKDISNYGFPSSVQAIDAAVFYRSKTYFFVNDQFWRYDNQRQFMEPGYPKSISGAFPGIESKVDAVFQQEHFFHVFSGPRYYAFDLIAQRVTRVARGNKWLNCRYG
MMP-9 (part of MMP-2/9, Chemicon), sequence (chain, as listed by the source): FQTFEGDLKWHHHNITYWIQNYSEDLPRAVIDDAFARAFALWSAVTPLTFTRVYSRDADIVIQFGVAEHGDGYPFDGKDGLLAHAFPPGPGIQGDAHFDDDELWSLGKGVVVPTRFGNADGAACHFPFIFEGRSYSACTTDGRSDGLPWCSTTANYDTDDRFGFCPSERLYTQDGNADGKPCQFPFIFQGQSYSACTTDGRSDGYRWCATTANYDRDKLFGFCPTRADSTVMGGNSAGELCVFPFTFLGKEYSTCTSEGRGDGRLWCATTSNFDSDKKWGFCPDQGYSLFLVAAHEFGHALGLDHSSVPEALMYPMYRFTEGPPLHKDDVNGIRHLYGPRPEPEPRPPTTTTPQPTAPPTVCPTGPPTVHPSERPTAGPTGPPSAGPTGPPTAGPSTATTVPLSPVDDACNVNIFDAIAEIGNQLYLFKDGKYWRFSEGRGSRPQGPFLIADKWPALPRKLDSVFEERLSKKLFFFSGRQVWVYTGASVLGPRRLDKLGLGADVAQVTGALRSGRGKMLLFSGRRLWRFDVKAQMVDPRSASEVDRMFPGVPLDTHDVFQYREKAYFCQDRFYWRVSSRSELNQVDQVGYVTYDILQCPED
MMP-9 catalytic domain (part of the MMP-2/-9 catalytic domain cocktail), sequence (chain, as listed by the source): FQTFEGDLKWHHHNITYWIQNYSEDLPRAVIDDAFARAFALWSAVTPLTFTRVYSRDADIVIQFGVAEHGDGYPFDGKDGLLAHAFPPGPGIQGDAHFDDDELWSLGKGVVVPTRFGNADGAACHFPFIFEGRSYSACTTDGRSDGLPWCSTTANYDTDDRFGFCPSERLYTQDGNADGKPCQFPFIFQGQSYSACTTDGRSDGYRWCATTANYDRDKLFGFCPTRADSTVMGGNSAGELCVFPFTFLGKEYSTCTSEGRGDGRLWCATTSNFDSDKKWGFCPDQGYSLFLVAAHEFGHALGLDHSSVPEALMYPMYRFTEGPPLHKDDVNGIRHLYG

| Substance | fluorescent emission from the LTBP-1 substrate [1] | fluorescence emission (cleavage of the quenched fluorogenic substrate) [2] |
| --- | --- | --- |
| MMP-2 catalytic domain (part of the MMP-2/-9 catalytic domain cocktail) | Incubation with an MMP-2/-9 catalytic domain cocktail (10 ug/mL) caused no fluorescent emission from the LTBP-1 substrate. | – |
| MMP-8 (Calbiochem) | – | Incubation with MMP-2/9, MMP-8, or ADAM-10 and 17 alone failed to cause fluorescence emission from the MT1-MMP substrate. |
| MMP-9 (part of MMP-2/9, Chemicon) | – | Incubation with MMP-2/9, MMP-8, or ADAM-10 and 17 alone failed to cause fluorescence emission from the MT1-MMP substrate. |
| MMP-9 catalytic domain (part of the MMP-2/-9 catalytic domain cocktail) | Incubation with an MMP-2/-9 catalytic domain cocktail (10 ug/mL) caused no fluorescent emission from the LTBP-1 substrate. | – |
